Measurements reported in patent CN107827984A (ZHANG HUILIN; ZHU JIN, dated 2018).

Experiments:
[1] = biological target: ROR1天然抗原 (人卵巢癌细胞系A2780) (human) (UniProt Q01973); assay: flow cytometry on A2780 cells, Fab at 30 μg/mL, FITC goat anti-human Fab secondary
[2] = biological target: T1, 重组人ROR1蛋白 (北京义翘神州, 产品编号13968-H08H) (human, UniProt Q01973 30-403); assay: ELISA, ROR1 coated at 0.5 μg/mL, Fab from 200 μg/mL in 11 dilutions, goat anti-human Fab secondary, OD450
T1 construct: Bought protein; also called recombinant human ROR1 protein
T1 sequence (Q01973 30-403 limits assumed): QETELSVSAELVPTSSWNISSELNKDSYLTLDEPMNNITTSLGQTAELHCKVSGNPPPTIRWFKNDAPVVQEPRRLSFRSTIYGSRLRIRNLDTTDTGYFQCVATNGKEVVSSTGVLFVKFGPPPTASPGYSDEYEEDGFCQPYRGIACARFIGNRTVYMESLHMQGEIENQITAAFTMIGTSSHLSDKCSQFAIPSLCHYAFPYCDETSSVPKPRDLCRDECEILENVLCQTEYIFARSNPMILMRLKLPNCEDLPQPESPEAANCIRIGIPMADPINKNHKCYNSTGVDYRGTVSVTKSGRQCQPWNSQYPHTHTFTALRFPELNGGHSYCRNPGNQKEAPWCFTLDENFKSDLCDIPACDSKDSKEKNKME

结合率 [1]: 97.4% | binding result [2]: binds
B1: 嵌合抗ROR1抗体Fab分子 (Fab, V domains shown)
VH: EVQLVQSGGGLVQPKGSLKLSCAASGFTFNTYAMNWVRQAPGKGLEWVARIRSKSNNYATYYADSVKDRFTISRDDSQSMLYLQMNNLKTEDTAMYYCVSPAYYGNYVGFAYWGQGTLVTVSA
VL: ELVMTQSPTTMAASPGEKITFTCSASSSISSTYLHWFQQKPGFSPKLLIYRTSNLASGVPARFSGSGSGTSYSLTIGTMEAEDVATYYCQQGSSLPFTFGSGTKLEIKG
notes: Human-mouse chimeric Fab, L and Fd joined by an interchain disulfide; also called 抗ROR1抗体人鼠嵌合Fab分子; 抗ROR1抗体嵌合Fab分子
